Experimental data taken from patent publication US5573924.

Tests used:
[1] = target: human CD27 ligand (CD27L), membrane-bound (human); assay: indirect binding assay on CV-1/EBNA cells transfected with cloned CD27L: varying CD27/Fc, then 125I-mouse anti-human IgG; Scatchard analysis, low-affinity component
[2] = target: human CD27 ligand (CD27L), membrane-bound (human); assay: indirect binding assay on CV-1/EBNA cells transfected with cloned CD27L: varying CD27/Fc, then 125I-mouse anti-human IgG; Scatchard analysis, high-affinity component
[3] = target: human CD27 ligand (CD27L), membrane-bound (human); assay: indirect binding assay on MP-1 cells (native CD27L): varying CD27/Fc, then 125I-mouse anti-human IgG; Scatchard analysis, high-affinity component
[4] = target: human CD27 ligand (CD27L), membrane-bound (human); assay: indirect binding assay on MP-1 cells (native CD27L): varying CD27/Fc, then 125I-mouse anti-human IgG; Scatchard analysis, low-affinity component

Ka [1]: 1.2e+08 M⁻¹
Ka [2]: 2.7e+09 M⁻¹
Ka [3]: 1.58e+09 M⁻¹
Ka [4]: 1.83e+08 M⁻¹
Substance: CD27/Fc fusion protein (from UniProt P26842)
